Percent reduction of co-immunoprecipitated Pin1 against wild type and Kd data for two substances are collected here from publication PMC4807222.

Assay [1] concerns the target V5-Myc, murine c-Myc mutant 20-PAAA (murine) (UniProt P01108). Put plainly: co-IP.
Assay [2] deals with V5-Myc, murine c-Myc mutant 20-AAAI (murine) (UniProt P01108). Put plainly: co-IP.
Assay [3] addresses V5-Myc, murine c-Myc mutant 20-PAAI (murine) (UniProt P01108). Put plainly: co-IP.
Assay [4] deals with c-Myc_(1–88) c-Myc-20-PYFY/AAAA-23 mutant (human) (UniProt P01106). The assay can be described thus: SPR. In general terms: SPR reads the build-up and loss of mass on a sensor chip optically.

Usually Kd stands for the constant that tells how readily two partners part at equilibrium. Higher therefore signals lower affinity.

Chain of Flag-tagged Pin1 (co-immunoprecipitation) (Q13526 whole entry): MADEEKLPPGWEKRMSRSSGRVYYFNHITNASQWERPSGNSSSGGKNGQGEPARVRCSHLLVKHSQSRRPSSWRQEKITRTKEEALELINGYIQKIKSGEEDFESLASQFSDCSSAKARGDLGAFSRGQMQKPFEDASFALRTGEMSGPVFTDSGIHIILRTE
Chain of full-length Pin1 (1–163) (Q13526 whole entry): as above
Chain of V5-Myc, murine c-Myc mutant 20-PAAA (murine) (P01108 whole entry, change not shown): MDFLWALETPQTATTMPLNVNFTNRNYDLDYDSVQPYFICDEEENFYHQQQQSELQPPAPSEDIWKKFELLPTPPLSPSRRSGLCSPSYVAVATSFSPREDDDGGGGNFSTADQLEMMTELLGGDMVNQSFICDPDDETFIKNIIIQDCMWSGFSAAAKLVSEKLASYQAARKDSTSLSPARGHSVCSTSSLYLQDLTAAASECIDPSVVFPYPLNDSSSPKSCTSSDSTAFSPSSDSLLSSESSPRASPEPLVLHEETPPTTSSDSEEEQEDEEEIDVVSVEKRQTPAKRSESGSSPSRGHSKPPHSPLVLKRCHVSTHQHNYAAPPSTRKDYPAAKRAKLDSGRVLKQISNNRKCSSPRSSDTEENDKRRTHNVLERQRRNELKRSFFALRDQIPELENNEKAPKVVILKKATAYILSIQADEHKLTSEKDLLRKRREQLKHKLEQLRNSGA
Chain of V5-Myc, murine c-Myc mutant 20-PAAI (murine) (P01108 whole entry, change not shown): as above
Chain of V5-Myc, murine c-Myc mutant 20-AAAI (murine) (P01108 whole entry, change not shown): as above

Regarding “Flag-tagged Pin1 (co-immunoprecipitation) (from UniProt Q13526 1-163) (enzyme)”, the percent reduction of co-immunoprecipitated Pin1 against wild type in assay [1], in assay [2] and in assay [3] was over 50% throughout.
In assay [4], “full-length Pin1 (1–163) (from UniProt Q13526 1-163) (enzyme)” displayed a Kd of 15 µM.
